The results in this text go back to article PMC8511952.

What is called Kd is a measure of binding affinity in units of concentration. The low end stands for higher affinity, the high end for lower affinity.

Series [1] deals with MBP-ERS2.5W WT (Homo sapiens). Put plainly: fluorescence anisotropy. To be noted: unmodified in vitro transcript; FA: 5 nM labeled tRNA, 25 mM Tris-HCl pH 8, 50 mM NaCl, 1 mM MgCl2, room temperature, 30 min. (Polarisation of emitted light reports the rotation of a fluorescent probe.)
Series [2] has as its system MBP-ERSRC WT (Homo sapiens). Put plainly: fluorescence anisotropy. To be noted: unmodified in vitro transcript; FA: 5 nM labeled tRNA, 25 mM Tris-HCl pH 8, 50 mM NaCl, 1 mM MgCl2, room temperature, 30 min.

Take tRNAGlu(TTC): the Kd in series [1] came to 83.7 nM; in series [2], 331 nM.
